Measured values taken from publication PMC9170038, “Crowdsourced RNA design discovers diverse, reversible, efficient, self-contained molecular switches”.

B1: Eterna 6393566 (Inverted Small Loop Exclusion NG 3) (ssRNA)
RNA: AGCACGAAAGUGCAACGAUGUACGAGAAGGACAUGAGGAUCACCCAUGUUGCUGUAACUGCUUAUGUAGGAUAUCGUACAUCGA
B2: Eterna 7709711 (Same State - Tryptophan B) (ssRNA)
RNA: UAUAUAGUGACGGCCGCCACUAUUGUGAUGUAGUUGUUAGAGUGAUGUUUUGUUGUUUGAUUUUGUAGGACCGGGUUAUAUGUUA
B3: Eterna 7714851 (Same State - Theophylline B) (ssRNA)
RNA: AGAACUGUCUGAGAUACCAGCCAGGAAGUGAUGUUUCCAGCUCCACGAAAGUGGAGCCAUGGCCCUUGGCAGCUCAGACAGUUCA
B4: Eterna 6398784 (Exclusion NG 1) (ssRNA)
RNA: CCUGCACCUCAAGGAUAUCCAGUCGAAACGACUGGAGAAGGUGAGGAUCACCCACCUAGCCUGACGAAAGUCAGGCAUGCAGGA
B5: Eterna 1541 (Same State - FMN A) (ssRNA)
RNA: AAGUGGGAACGGCCCAAUAAAGUGUUUGUCAAGGAUAUUAUUCACAUAAGAAGGUGACAGACCACCUCCGGAGUGAUGUUUUGGA
B6: Eterna 6423537 (Small Loop Exclusion NG 1) (ssRNA)
RNA: GAGUAGAUCCGAGGAUAUACAAUCCGGAAACGGUACAUGAGGAUCACCCAUGUAGAAGGCGGAUCUACAGGUACUAAAGUACCU
B7: Eterna 7685224 (Exclusion - Theophylline B) (ssRNA)
RNA: AAUUUAUUAACUGAUACCAGACUUAAUUAAUUGUAAAUUACUAGUGAUGUUAGUGAUUCUGUCCCUUGGCAGCAGUAUUUAUUAA
B8: Eterna 7723566 (Exclusion - Tryptophan A) (ssRNA)
RNA: AUGUCGUUAUAGUGAGUGAUGUUCACUGUGCGAGGACCGGUACGGCCGCCACUCGAGAGUGGUGGACACUGAGUCACUCUGACAC
B9: Eterna 7684757 (Exclusion - Tryptophan B) (ssRNA)
RNA: AAUAAAAUCACGGCCGCCACUGAUUACCAUAUUAGGAGUGAUGUUCCUAUGACUAUAUAAUUUAACAGGACCGGGUGAAUAUUUA
B10: Eterna 7739921 (Exclusion - Arginine B) (ssRNA)
RNA: UGAUAGGACAGAAGGAGCGGCAGUGAUGUUGCCAAAAGGGUAAGGUGUCAAAAGACACCCUGCCAGGUAGGUCGCUGUCCUAUCU
B11: Eterna 7672999 (Same State - Tryptophan B) (ssRNA)
RNA: UGGUACAUGGCGGCCGCCACUUCACGUAAAAUAAAAACUUGAGGAUCACCCAAGUAAUAAGUUGGGAGGACCGGGUCAUGUACCU
B12: Eterna 7722469 (Exclusion - FMN A) (ssRNA)
RNA: AUUUAGACGAGUGAUGUUCGUGUUAUUACAGAGGAUAUGCGUAAUUGCAGAAGGCUGUAUUUAUAUAUGUUAUGUAGUUUUAAAA
B13: Eterna 7681870 (Exclusion - Theophylline B) (ssRNA)
RNA: CCUAUCUCAUACGAUACCAGUCAACGAGUGAUGUUCGAAUAAAUAAAUUUGCCAAAUAAUGACCCUUGGCAGCGUAUGGGAUAGG
B14: Eterna 7682758 (Exclusion - Arginine A) (ssRNA)
RNA: AAUUUACAUUAAUUAUUUAAAGGUUCAGAAGGAGCGUGAAUUAACACAGGUAGGUCGCUGAGCGAGUGAUGUUCGCUAUAUACUA
B15: Eterna 7682834 (Same State - Tryptophan A) (ssRNA)
RNA: UGUCAUGGAAACAUGAACGUUGAUGUUCGACGAGGACCGGUACGGCCGCCACUCGAGUAAUAGUCAGUGAUGUUGACUUGUUUAA
B16: Eterna 7670643 (Exclusion - Theophylline B) (ssRNA)
RNA: UGACAUUGCUCAGAUACCAGACGUGAGCAUCAGCCAUGUGCCAACAAGUACAAAAUAAAUGUCCCUUGGCAGCUGAGCAAUGUCU
B17: Eterna 7734632 (Exclusion - FMN B) (ssRNA)
RNA: CAUACGCAUGGAGGAUAUGAGAUUUUUCAUAUUAUUUUUUAUUCUCAGUGAUGUUGGGAUUUAUAAUCAGAAGGCCAUGUGUAUG
B18: Eterna 7754813 (Same State - Tryptophan B) (ssRNA)
RNA: UAGUAGCUCUCGGCCGCCACUCCUCAGUGAUGUUGAGAUAUUAAGAGCCAAUUGGCUCAUAUAAAGAGGACCGGGAGAGCUACAU
B19: Eterna 12520 (Exclusion 2) (ssRNA)
RNA: AAACAGGGAGGAUAUACAUAGAUCCUCUAACCUAAUUGGUCACAUGAGGAUCACCCAUGUAGAAGGCCCUUAGG
B20: Eterna 7687231 (Exclusion - Arginine A) (ssRNA)
RNA: AAUGUACAAGUGAUGUUUGUACUUUCCGAAGGAGCGUCUAAUAAGACAGGUAGGUCGCGGAUUCUCUAAAUUAUCAGGUCAUUAA
B21: Eterna 7685253 (Same State - Tryptophan B) (ssRNA)
RNA: AGACGCCAGUCGGCCGCCACUCACAGCAGUGAUGUUGCUGAAAAUCUAGAAGAGUGAUGUUCUUAGAGGACCGGGACUCCAGUCG
B22: Eterna 7687729 (Same State - FMN B) (ssRNA)
RNA: AUUUUUAACUGAGGAUAUCGAAUUUAUGUAGUGAUGUUACUUUAAAUUAAAAUUUUAAUUUCUUAACGAGAAGGCAGAAUAAUUA
B23: Eterna 1268 (Exclusion - Tryptophan B) (ssRNA)
RNA: AAGCCAUACUCGGCCGCCACUUACUUCGUUGCAGUGAUGUUGCACACGAAUCCGUCAUAGCAAAUAAGGACCGGGAGAUAUACCG
B24: Eterna 6102128 (Same State NG 3) (ssRNA)
RNA: AAAACAUGAGGAUCACCCAUGUAAAUAUCGGUUAAUUGUUGUGAGGAUAUACUAAAUUUUAAGAAGUAGAAGGCACUGGGUACA
B25: Eterna 12456 (Exclusion 4) (ssRNA)
RNA: GUAAAGUGAGGAUAUGGUAAAUUAAUUAUUAAUUAAUUAAUCCAGAAGGCACAUGAGGAUCACCCAUGUAAUUG
B26: Eterna 7712196 (Same State - FMN B) (ssRNA)
RNA: AGAGUUAUGCGAGGAUAUGCAGUUAGUACUCAAAGAGUACUAACGCAGAGUGAUGUUCUGUGAAACGCAGAAGGUGCAUAACUCA
B27: Eterna 6108976 (Same State NG 2) (ssRNA)
RNA: GUAGCAUACCGAGGAUAUUCAUAUAAUAAAUAAACAUGAGGACCACCCAUGUGGCGAAAGCCUUGGGAGAAGGCGGAAUGCUAC
B28: Eterna 12408 (Exclusion 4) (ssRNA)
RNA: CAUUUGUGAGGAUAUCAGGUGUGCUAGCGUACUGGUACAUCUGAGAAGGCACAUGAGGAUCACCCAUGUUUCUU
B29: Eterna 7734297 (Exclusion - Theophylline B) (ssRNA)
RNA: GGCCGAUGGUGCGAUACCAGCUUGAGUGUACUGGCCAGGUACAUGAGGAUCACCCAUGUAAGCCCUUGGCAGCGCGUCAGAGGCC

These binders were tested against MS2 coat protein, dlFG mutant (Escherichia phage MS2, UniProt P03612, del68-81insG) (assay: 4 mM Mg2+; no ligand; RNA-MaP array; 100 mM Tris-HCl pH 7.5, 80 mM KCl, 4 mM MgCl2, 0.1 mg/mL BSA, 1 mM DTT, 0.01 mg/mL yeast tRNA, 0.01% Tween-20; protein 1.5 nM to 3 uM; 37 C (Table S3)). Conditions: chain copies: 2; label: tethered by stalled RNA polymerase.

Compared with B1, B2 is higher in Kd: 5.14 nM for the first, over 3000 nM for the second. The first binds more tightly here.

Going from B3 to B4, the Kd falls from over 3000 nM to 14.4 nM. The second binds more tightly here.

Going from B5 to B6, the Kd falls from over 3000 nM to 5.63 nM. The second binds more tightly here.

B7 and B8 cannot be ordered by Kd: over 3000 nM for the first, over 3000 nM for the second.

B9 and B10 cannot be ordered by Kd: over 3000 nM for the first, over 3000 nM for the second.

Compared with AAAGCAUGACGCGCUUUCAAGCGUGGCGAGUAUAAA (ssRNA) [Eterna 2 (No-binding control)], B11 is lower in Kd: over 3000 nM for the first, 19 nM for the second.

B12 and B13 cannot be ordered by Kd: over 3000 nM for the first, over 3000 nM for the second.

B14 and B15 cannot be ordered by Kd: over 3000 nM for the first, over 3000 nM for the second.

Going from UUUUCAGAACUUAUUU (ssRNA) [Eterna 3 (ShortRNAControl)] to B16, the Kd falls from over 3000 nM to 16.6 nM.

B17 and B18 cannot be ordered by Kd: over 3000 nM for the first, over 3000 nM for the second.

Compared with B19, B20 is higher in Kd: 11.8 nM for the first, over 3000 nM for the second. The first binds more tightly here.

B21 and B22 cannot be ordered by Kd: over 3000 nM for the first, over 3000 nM for the second.

Compared with B23, B24 is lower in Kd: over 3000 nM for the first, 24.4 nM for the second.

Going from B25 to B26, the Kd rises from 24.8 nM to over 3000 nM. The first binds more tightly here.

First: B27
Second: B28
The Kd of the first is 66-fold higher: 1050 nM for the first, 15.8 nM for the second.

B29 gave a Kd of 10.6 nM.
